Changes are numbered by the printed parent chain. Where no end group is shown, it is not given here.
Experiments:
XPA 210 peptide = biological target: T1, XPA 210 peptide (human, immobilized on streptavidin coated plate (biotinylated) in the Pepscan); assay: Pepscan ELISA, peptide on streptavidin plate
T1 construct: also called 31-mer; 31-mer peptide
T1 peptide: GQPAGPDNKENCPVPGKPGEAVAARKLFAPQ
Experimental: (§1) In order to determine the amino acid region to which the selected monoclonal antibodies bind a Pepscan analysis with biotinylated 10 amino acid target peptides was carried out. The procedure is based on synthesis of a set of 14 ten-mer amino acid peptides representing the region from 193 to 226 of the TK1 sequence as shown in connection with Example 1. Each peptide has an eight amino acids overlap and two amino acids gaps, leading to a set of 14 different peptides, see Table 2. The entire full-length peptide is also included and all these peptides were immobilized on a streptavidine coated microtiter plate. After a 1 hour adsorption step the plates were washed with PBS, 1% BSA and 0.1% Tween 20. The different antibodies were then added at approximately 5 μg/ml and the plates were incubated for 1 hour, followed by washing three times. Then a HRP conjugate was added and incubated for 1 hour. The plates were then washed six times with the same buffer. Finally the absorbance was determined with 100 μl 3,3′,5,5′-tetramethylbenzidine (TMB) substrate and the results from one test with a series of antibodies are shown in Table 2.

ASGQPAGPDN [1] = biological target: T2, ASGQPAGPDN (human, also: biotinylated, position not given here); assay: Pepscan ELISA, peptide on streptavidin plate
T2 peptide: ASGQPAGPDN
Experimental: as §1

GQPAGPDNKE [2] = biological target: T3, GQPAGPDNKE (human, also: biotinylated); assay: Pepscan ELISA, peptide on streptavidin plate
T3 peptide: GQPAGPDNKE
Experimental: as §1

PAGPDNKENC [3] = biological target: T4, PAGPDNKENC (human, also: biotinylated); assay: Pepscan ELISA, peptide on streptavidin plate
T4 peptide: PAGPDNKENC
Experimental: as §1

GPDNKENCPV [4] = biological target: T5, GPDNKENCPV (human, also: biotinylated); assay: Pepscan ELISA, peptide on streptavidin plate
T5 peptide: GPDNKENCPV
Experimental: as §1

DNKENCPVPG [5] = biological target: T6, DNKENCPVPG (human, also: biotinylated); assay: Pepscan ELISA, peptide on streptavidin plate
T6 peptide: DNKENCPVPG
Experimental: as §1

KENCPVPGKP [6] = biological target: T7, KENCPVPGKP (human, also: biotinylated); assay: Pepscan ELISA, peptide on streptavidin plate
T7 peptide: KENCPVPGKP
Experimental: as §1

NCPVPGKPGE [7] = biological target: T8, NCPVPGKPGE (human, also: biotinylated); assay: Pepscan ELISA, peptide on streptavidin plate
T8 construct: also called peptide 7
T8 peptide: NCPVPGKPGE
Experimental: as §1

PVPGKPGEAV [8] = biological target: T9, PVPGKPGEAV (human, also: biotinylated); assay: Pepscan ELISA, peptide on streptavidin plate
T9 construct: also called peptide 8
T9 peptide: PVPGKPGEAV
Experimental: as §1

PGKPGEAVAA [9] = biological target: T10, PGKPGEAVAA (human, also: biotinylated); assay: Pepscan ELISA, peptide on streptavidin plate
T10 peptide: PGKPGEAVAA
Experimental: as §1

KPGEAVAARK [10] = biological target: T11, KPGEAVAARK (human, also: biotinylated); assay: Pepscan ELISA, peptide on streptavidin plate
T11 peptide: KPGEAVAARK
Experimental: as §1

GEAVAARKLF [11] = biological target: T12, GEAVAARKLF (human, also: biotinylated); assay: Pepscan ELISA, peptide on streptavidin plate
T12 construct: also called 10-mer; 10-mer peptide
T12 peptide: GEAVAARKLF
Experimental: as §1

AVAARKLFAP [12] = biological target: T13, AVAARKLFAP (human, also: biotinylated); assay: Pepscan ELISA, peptide on streptavidin plate
T13 peptide: AVAARKLFAP
Experimental: as §1

AARKLFAPQQ [13] = biological target: T14, AARKLFAPQQ (human, also: biotinylated, position not given here); assay: Pepscan ELISA, peptide on streptavidin plate
T14 peptide: AARKLFAPQQ
Experimental: as §1

ARKLFAPQQI [14] = biological target: T15, ARKLFAPQQI (human, also: biotinylated, position not given here); assay: Pepscan ELISA, peptide on streptavidin plate
T15 peptide: ARKLFAPQQI
Experimental: as §1

human recombinant TK1 [15] = biological target: T16, human recombinant TK1 (human, UniProt P04183 1-234, limits assumed); assay: Attana 200 quartz crystal microbalance biosensor, antibody captured by anti-mouse IgG, rTK1 injected, 1:1 model
T16 construct: also called human rTK1; rTK1
T16 sequence (looked up): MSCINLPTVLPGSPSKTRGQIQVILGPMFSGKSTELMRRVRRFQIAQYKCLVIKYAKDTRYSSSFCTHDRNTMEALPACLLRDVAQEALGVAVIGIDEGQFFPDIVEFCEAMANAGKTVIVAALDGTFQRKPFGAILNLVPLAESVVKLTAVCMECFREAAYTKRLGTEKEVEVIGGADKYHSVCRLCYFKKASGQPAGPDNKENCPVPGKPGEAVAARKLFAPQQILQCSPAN
Experimental: (§2) In the experiment shown in FIGS. 8A and 8B an LNB Carboxyl sensor chip was used, which was pre-reacted with the Mouse IgG capture kit (Biacore, GE Healthcare) with the amine coupling procedure. The ligands were XPA 210-Ar1 and XPA 210-Ar2 and they were captured to the surface with anti-mouse antibodies by two injections of 50 μg/ml antibody solutions in a 10 mM acetate buffer pH 4.5. An identically treated chip without the capture antibody was used a negative control. Pure recombinant TK1, diluted to 20 μg/ml in 10 mM HEPES, 150 mM NaCl, 0.005% Tween 20, pH 7.4, was injected over the surface at 25 μl/min. The association time was 84 s and the dissociation was measured for another 300 s. Buffer without recombinant TK1 was injected as a blank and subtracted from the sample injection signals.
(§3) An 1:1 binding model was used for calculation of the kinetic constants from the fitted curves of the double reference data as shown in FIGS. 8A and 8B.

human recombinant TK1 [16] = biological target: T16, human recombinant TK1; assay: Attana quartz crystal microbalance, antibody captured by anti-mouse IgG on the chip, recombinant TK1 injected at 20 to 1.25 ug/ml, 1:1 binding model
Experimental: as §2, §3

ASGQPAGPDN [17] = biological target: T2, ASGQPAGPDN; assay: Pepscan ELISA
Experimental: as §1

GQPAGPDNKE [18] = biological target: T3, GQPAGPDNKE; assay: Pepscan ELISA
Experimental: as §1

PAGPDNKENC [19] = biological target: T4, PAGPDNKENC; assay: Pepscan ELISA
Experimental: as §1

GPDNKENCPV [20] = biological target: T5, GPDNKENCPV; assay: Pepscan ELISA
Experimental: as §1

DNKENCPVPG [21] = biological target: T6, DNKENCPVPG; assay: Pepscan ELISA
Experimental: as §1

KENCPVPGKP [22] = biological target: T7, KENCPVPGKP; assay: Pepscan ELISA
Experimental: as §1

NCPVPGKPGE [23] = biological target: T8, NCPVPGKPGE; assay: Pepscan ELISA
Experimental: as §1

PVPGKPGEAV [24] = biological target: T9, PVPGKPGEAV; assay: Pepscan ELISA
Experimental: as §1

PGKPGEAVAA [25] = biological target: T10, PGKPGEAVAA; assay: Pepscan ELISA
Experimental: as §1

KPGEAVAARK [26] = biological target: T11, KPGEAVAARK; assay: Pepscan ELISA
Experimental: as §1

GEAVAARKLF [27] = biological target: T12, GEAVAARKLF; assay: Pepscan ELISA
Experimental: as §1

AVAARKLFAP [28] = biological target: T13, AVAARKLFAP; assay: Pepscan ELISA
Experimental: as §1

AARKLFAPQQ [29] = biological target: T14, AARKLFAPQQ; assay: Pepscan ELISA
Experimental: as §1

ARKLFAPQQI [30] = biological target: T15, ARKLFAPQQI; assay: Pepscan ELISA
Experimental: as §1

B1: XPA 210-Ar1 (antibody, V domains shown)
VH: QVQLQQSGAELVRPGASMKLSCKALGYTLTDYEMHWVKQTPAHGLEWIGAIHPGYGGTAYNQKFKGKATLTADKSSSTAYMELSSLTSEDSAVYYCTTFITKFDYWGQGTTLTVSS
VL: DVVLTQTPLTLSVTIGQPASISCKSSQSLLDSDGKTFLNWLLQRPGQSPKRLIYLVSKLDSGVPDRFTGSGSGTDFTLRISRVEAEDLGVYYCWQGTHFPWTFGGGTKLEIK
notes: Mouse monoclonal from hybridoma; also called monoclonal antibody XPA 210-Ar1
XPA 210 peptide
  absorbance at 415 nm: 3.84 absorbance
ASGQPAGPDN [1]
  absorbance at 415 nm: 0.113 absorbance
GQPAGPDNKE [2]
  absorbance at 415 nm: 0.108 absorbance
PAGPDNKENC [3]
  absorbance at 415 nm: 0.12 absorbance
GPDNKENCPV [4]
  absorbance at 415 nm: 0.112 absorbance
DNKENCPVPG [5]
  absorbance at 415 nm: 0.108 absorbance
KENCPVPGKP [6]
  absorbance at 415 nm: 0.109 absorbance
NCPVPGKPGE [7]
  absorbance at 415 nm: 0.114 absorbance
PVPGKPGEAV [8]
  absorbance at 415 nm: 0.115 absorbance
PGKPGEAVAA [9]
  absorbance at 415 nm: 0.112 absorbance
KPGEAVAARK [10]
  absorbance at 415 nm: 0.116 absorbance
GEAVAARKLF [11]
  absorbance at 415 nm: 3.51 absorbance
AVAARKLFAP [12]
  absorbance at 415 nm: 0.125 absorbance
AARKLFAPQQ [13]
  absorbance at 415 nm: 0.137 absorbance
ARKLFAPQQI [14]
  absorbance at 415 nm: 0.13 absorbance
Human recombinant TK1 [15]
  Kd: 0.65 nM
Human recombinant TK1 [16]
  koff: 1.61e-05 s⁻¹
  kon: 24800 M⁻¹ s⁻¹

B2: XPA 210-Ar2 (antibody, V domains shown)
VH: B1 VH with M18V, L29F, K38R, A42V, H52L, Y55S, F99L, K102T
VL: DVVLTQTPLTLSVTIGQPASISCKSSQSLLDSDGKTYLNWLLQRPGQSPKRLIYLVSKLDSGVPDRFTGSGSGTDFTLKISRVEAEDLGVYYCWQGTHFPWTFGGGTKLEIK
notes: Mouse monoclonal from hybridoma; also called Sup-162; XPA-Ar2
ASGQPAGPDN [17]
  binding result: no binding (tested: approximately 5 µg/ml)
GQPAGPDNKE [18]
  binding result: no binding (tested: approximately 5 µg/ml)
PAGPDNKENC [19]
  binding result: no binding (tested: approximately 5 µg/ml)
GPDNKENCPV [20]
  binding result: no binding (tested: approximately 5 µg/ml)
DNKENCPVPG [21]
  binding result: no binding (tested: approximately 5 µg/ml)
KENCPVPGKP [22]
  binding result: no binding (tested: approximately 5 µg/ml)
NCPVPGKPGE [23]
  binding result: no binding (tested: approximately 5 µg/ml)
PVPGKPGEAV [24]
  binding result: no binding (tested: approximately 5 µg/ml)
PGKPGEAVAA [25]
  binding result: no binding (tested: approximately 5 µg/ml)
KPGEAVAARK [26]
  binding result: no binding (tested: approximately 5 µg/ml)
GEAVAARKLF [27]
  binding result: no binding (tested: approximately 5 µg/ml)
AVAARKLFAP [28]
  binding result: no binding (tested: approximately 5 µg/ml)
AARKLFAPQQ [29]
  binding result: no binding (tested: approximately 5 µg/ml)
ARKLFAPQQI [30]
  binding result: no binding (tested: approximately 5 µg/ml)
XPA 210 peptide
  absorbance at 415 nm: 3.79 absorbance
ASGQPAGPDN [1]
  absorbance at 415 nm: 0.067 absorbance
GQPAGPDNKE [2]
  absorbance at 415 nm: 0.064 absorbance
PAGPDNKENC [3]
  absorbance at 415 nm: 0.063 absorbance
GPDNKENCPV [4]
  absorbance at 415 nm: 0.063 absorbance
DNKENCPVPG [5]
  absorbance at 415 nm: 0.063 absorbance
KENCPVPGKP [6]
  absorbance at 415 nm: 0.063 absorbance
NCPVPGKPGE [7]
  absorbance at 415 nm: 0.064 absorbance
PVPGKPGEAV [8]
  absorbance at 415 nm: 0.067 absorbance
PGKPGEAVAA [9]
  absorbance at 415 nm: 0.067 absorbance
KPGEAVAARK [10]
  absorbance at 415 nm: 0.072 absorbance
GEAVAARKLF [11]
  absorbance at 415 nm: 0.072 absorbance
AVAARKLFAP [12]
  absorbance at 415 nm: 0.077 absorbance
AARKLFAPQQ [13]
  absorbance at 415 nm: 0.066 absorbance
ARKLFAPQQI [14]
  absorbance at 415 nm: 0.063 absorbance

B3: XPA 210-Ar3 (antibody, V domains shown)
VH: DVQLQESGPDLVKPSQSLSLTCTVTGYSITSGYSWHWIRQFPGNKLEWLGYIHYSGSTTYNPSLKGRISITRDTSKNQFFLQLNSVTTEDTATYYCARWGTGHWYFDVWAAGTTVTVSS
VL: QAVVTQESALTTSPGKTVTLTCRSSTGAVTTTNYANWVQEKPDHLFTGLIGGTNNRVPGVPARFSGSLIGDKAALTITGAQTEDEAIYFCALWYSNHWVFGGGTKLTVL
notes: Mouse monoclonal from hybridoma; also called Sup-165
XPA 210 peptide
  absorbance at 415 nm: 0.136 absorbance
ASGQPAGPDN [1]
  absorbance at 415 nm: 0.057 absorbance
GQPAGPDNKE [2]
  absorbance at 415 nm: 0.057 absorbance
PAGPDNKENC [3]
  absorbance at 415 nm: 0.055 absorbance
GPDNKENCPV [4]
  absorbance at 415 nm: 0.06 absorbance
DNKENCPVPG [5]
  absorbance at 415 nm: 0.059 absorbance
KENCPVPGKP [6]
  absorbance at 415 nm: 0.058 absorbance
NCPVPGKPGE [7]
  absorbance at 415 nm: 1.99 absorbance
PVPGKPGEAV [8]
  absorbance at 415 nm: 1.84 absorbance
PGKPGEAVAA [9]
  absorbance at 415 nm: 0.059 absorbance
KPGEAVAARK [10]
  absorbance at 415 nm: 0.059 absorbance
GEAVAARKLF [11]
  absorbance at 415 nm: 0.057 absorbance
AVAARKLFAP [12]
  absorbance at 415 nm: 0.062 absorbance
AARKLFAPQQ [13]
  absorbance at 415 nm: 0.06 absorbance
ARKLFAPQQI [14]
  absorbance at 415 nm: 0.062 absorbance

Reference: patent US20190002587A1 (AROCELL, published 2019)
